In the supplement of paper PMC10065799, “High-throughput profiling of sequence recognition by tyrosine kinases and SH2 domains using bacterial peptide display” (eLife, 2023):

Columns and labels:
AncSZ = test: phosphorylation enrichment, bacterial display (enrichment ratio); higher = better substrate or ligand; peptides without Tyr show the background
EPHB1 = EPHB1 (UniProt P54762); test: as above
EPHB2 = EPHB2 (UniProt P29323); test: as above
FGFR1 = FGFR1 (UniProt P11362); test: as above
FGFR3 = FGFR3 (UniProt P22607); test: as above
Fer (mouse) = test: as above
Fes = Fes (UniProt P07332); test: as above
Fyn = Fyn (UniProt P06241); test: as above
Hck = Hck (UniProt P08631); test: as above
Jak2 = Jak2 (UniProt O60674); test: as above
MERTK = MERTK (UniProt Q12866); test: as above
c-Abl (mouse) = test: as above
c-Src = test: as above
Grb2 SH2 = Grb2 SH2 (UniProt P62993); test: SH2 binding enrichment of the phosphorylated peptide, bacterial display (enrichment ratio); higher = better substrate or ligand; peptides without Tyr show the background
SHP2-C SH2 = test: as above
c-Src SH2 = test: as above
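Throughout, for SH2 binding enrichment of the phosphorylated peptide, bacterial display: peptide library displayed on the E. coli surface as eCPX fusions, selected cells deep-sequenced, score is each peptide's frequency after selection divided by its frequency in the input.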
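Throughout, for phosphorylation enrichment, bacterial display: 11-residue human phosphosite peptides and single-mutation variants displayed on the E. coli surface, counted by deep sequencing, each peptide's frequency after selection divided by its frequency in the unselected input library; frequency after pTyr selection over input frequency; kinase dosed for 20-30% of maximal phosphorylation in three min.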

Sequence of Grb2 SH2 (P62993 whole entry, looked up): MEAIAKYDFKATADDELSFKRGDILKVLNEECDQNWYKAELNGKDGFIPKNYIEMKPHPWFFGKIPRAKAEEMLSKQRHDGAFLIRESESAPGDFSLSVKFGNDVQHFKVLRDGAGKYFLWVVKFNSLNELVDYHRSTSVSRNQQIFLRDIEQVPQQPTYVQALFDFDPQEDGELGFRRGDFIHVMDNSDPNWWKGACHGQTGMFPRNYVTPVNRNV
Sequence of MERTK (Q12866 whole entry, looked up): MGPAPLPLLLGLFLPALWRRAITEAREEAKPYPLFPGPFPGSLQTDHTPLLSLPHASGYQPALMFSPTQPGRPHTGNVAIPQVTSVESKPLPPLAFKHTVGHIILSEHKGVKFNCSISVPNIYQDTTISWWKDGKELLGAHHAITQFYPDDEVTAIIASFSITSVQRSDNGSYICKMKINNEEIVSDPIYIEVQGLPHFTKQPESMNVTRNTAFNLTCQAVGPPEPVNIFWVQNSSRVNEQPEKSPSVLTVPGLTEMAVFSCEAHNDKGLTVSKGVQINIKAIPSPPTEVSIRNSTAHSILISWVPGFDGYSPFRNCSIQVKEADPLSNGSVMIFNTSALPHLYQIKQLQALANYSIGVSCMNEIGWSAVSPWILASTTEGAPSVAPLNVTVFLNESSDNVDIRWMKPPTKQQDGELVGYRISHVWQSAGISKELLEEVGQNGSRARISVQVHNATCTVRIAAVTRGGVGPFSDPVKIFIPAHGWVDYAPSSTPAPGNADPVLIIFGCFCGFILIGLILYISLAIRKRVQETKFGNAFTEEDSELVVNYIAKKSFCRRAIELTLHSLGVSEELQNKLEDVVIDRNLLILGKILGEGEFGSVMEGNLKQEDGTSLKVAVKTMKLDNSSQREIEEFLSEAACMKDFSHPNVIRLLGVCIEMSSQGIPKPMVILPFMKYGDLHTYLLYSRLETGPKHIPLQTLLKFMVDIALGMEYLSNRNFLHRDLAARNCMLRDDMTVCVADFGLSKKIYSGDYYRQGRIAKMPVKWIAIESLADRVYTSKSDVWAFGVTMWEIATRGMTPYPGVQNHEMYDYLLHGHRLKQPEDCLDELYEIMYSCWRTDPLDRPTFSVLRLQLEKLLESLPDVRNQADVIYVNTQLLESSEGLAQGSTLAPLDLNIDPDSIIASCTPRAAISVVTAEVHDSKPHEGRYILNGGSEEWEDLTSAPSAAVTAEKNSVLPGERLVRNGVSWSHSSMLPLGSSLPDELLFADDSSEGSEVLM
Sequence of FGFR1 (P11362 whole entry, looked up): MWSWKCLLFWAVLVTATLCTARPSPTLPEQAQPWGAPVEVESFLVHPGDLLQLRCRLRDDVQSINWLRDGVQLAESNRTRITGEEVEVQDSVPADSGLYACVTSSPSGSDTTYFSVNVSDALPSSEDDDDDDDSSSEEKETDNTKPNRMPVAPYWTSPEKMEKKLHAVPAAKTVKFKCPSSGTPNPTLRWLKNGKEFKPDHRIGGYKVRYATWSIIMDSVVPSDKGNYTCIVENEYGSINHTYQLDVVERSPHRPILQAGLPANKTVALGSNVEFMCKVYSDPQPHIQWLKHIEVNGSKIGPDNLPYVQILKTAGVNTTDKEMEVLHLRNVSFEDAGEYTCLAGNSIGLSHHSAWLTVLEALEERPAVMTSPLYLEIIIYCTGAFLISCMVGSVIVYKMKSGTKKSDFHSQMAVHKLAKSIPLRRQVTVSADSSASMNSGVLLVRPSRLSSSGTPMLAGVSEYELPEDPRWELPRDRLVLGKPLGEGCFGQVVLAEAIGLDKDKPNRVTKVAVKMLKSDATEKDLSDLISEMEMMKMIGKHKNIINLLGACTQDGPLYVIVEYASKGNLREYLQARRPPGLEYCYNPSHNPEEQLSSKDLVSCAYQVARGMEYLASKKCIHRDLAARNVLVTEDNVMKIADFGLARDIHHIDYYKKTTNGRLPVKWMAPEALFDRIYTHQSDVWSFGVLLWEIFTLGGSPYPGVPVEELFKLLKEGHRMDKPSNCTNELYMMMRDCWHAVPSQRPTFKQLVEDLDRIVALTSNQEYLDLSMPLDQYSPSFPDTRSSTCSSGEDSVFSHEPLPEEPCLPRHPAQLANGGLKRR
Sequence of EPHB2 (P29323 whole entry, looked up): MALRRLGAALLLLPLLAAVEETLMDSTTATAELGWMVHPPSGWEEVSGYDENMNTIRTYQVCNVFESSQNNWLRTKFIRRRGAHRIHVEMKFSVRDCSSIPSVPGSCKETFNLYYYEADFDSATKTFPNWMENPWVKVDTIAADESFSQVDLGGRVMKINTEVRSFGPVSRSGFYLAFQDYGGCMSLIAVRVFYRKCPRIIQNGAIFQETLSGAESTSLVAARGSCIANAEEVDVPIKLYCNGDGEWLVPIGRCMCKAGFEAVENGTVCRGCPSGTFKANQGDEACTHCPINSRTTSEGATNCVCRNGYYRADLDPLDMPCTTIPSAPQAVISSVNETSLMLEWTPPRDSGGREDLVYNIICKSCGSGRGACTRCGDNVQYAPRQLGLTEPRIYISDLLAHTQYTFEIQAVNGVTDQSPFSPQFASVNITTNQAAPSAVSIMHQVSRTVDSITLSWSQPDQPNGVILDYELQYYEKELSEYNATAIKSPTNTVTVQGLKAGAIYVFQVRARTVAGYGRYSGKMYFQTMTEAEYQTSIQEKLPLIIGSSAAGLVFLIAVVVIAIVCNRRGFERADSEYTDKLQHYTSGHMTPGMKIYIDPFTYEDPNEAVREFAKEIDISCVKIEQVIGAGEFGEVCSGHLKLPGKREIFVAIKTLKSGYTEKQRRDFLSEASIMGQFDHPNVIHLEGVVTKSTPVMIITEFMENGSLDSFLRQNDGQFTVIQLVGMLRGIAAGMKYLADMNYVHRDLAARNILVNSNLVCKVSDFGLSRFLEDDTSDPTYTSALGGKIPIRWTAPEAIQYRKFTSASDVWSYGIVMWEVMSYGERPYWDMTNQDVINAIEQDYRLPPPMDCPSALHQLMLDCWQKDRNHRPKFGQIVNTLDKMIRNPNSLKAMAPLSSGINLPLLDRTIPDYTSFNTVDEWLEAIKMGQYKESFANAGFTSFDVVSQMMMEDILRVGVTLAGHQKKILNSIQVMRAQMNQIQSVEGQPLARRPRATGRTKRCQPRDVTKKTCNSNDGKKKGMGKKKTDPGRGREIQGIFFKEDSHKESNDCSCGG
Sequence of EPHB1 (P54762 whole entry, looked up): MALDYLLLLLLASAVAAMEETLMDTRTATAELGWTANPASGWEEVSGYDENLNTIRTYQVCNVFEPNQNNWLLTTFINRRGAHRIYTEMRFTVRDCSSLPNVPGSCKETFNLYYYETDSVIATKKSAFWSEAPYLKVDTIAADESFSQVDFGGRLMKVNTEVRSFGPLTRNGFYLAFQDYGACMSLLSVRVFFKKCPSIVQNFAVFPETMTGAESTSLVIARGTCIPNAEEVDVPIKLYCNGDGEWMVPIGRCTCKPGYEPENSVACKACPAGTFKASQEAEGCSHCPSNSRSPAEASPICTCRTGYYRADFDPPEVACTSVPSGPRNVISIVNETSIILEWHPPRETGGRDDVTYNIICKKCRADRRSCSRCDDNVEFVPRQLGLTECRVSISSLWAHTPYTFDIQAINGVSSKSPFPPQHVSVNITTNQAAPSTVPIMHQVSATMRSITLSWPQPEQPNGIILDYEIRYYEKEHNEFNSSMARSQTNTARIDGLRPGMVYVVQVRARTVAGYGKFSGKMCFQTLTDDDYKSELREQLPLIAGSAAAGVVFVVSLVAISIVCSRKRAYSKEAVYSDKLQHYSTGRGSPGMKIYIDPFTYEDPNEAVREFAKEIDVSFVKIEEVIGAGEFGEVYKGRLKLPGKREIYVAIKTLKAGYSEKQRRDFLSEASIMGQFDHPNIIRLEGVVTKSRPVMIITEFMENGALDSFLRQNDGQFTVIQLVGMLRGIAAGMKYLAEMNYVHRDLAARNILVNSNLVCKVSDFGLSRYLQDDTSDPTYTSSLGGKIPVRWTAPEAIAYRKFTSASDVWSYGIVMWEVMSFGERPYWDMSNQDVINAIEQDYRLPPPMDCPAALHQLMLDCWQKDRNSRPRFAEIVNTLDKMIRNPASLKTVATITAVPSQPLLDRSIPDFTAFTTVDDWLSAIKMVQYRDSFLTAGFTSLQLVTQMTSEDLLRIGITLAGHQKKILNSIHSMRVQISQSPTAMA
Sequence of Fyn (P06241 whole entry, looked up): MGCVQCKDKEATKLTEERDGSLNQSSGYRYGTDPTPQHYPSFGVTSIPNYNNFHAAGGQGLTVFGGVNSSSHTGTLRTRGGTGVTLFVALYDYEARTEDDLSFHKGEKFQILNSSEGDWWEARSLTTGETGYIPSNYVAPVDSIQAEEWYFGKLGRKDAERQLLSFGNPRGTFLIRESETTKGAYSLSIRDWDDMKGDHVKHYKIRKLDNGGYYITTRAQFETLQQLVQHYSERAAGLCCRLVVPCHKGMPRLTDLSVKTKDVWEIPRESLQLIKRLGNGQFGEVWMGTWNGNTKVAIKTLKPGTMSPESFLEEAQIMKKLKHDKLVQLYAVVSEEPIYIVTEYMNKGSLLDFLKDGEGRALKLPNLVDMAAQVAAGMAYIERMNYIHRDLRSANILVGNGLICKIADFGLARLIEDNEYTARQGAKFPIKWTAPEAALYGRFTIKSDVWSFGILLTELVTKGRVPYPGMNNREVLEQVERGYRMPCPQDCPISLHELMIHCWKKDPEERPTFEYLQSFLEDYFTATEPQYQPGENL

| Sequence | phosphorylation enrichment (AncSZ) | phosphorylation enrichment (EPHB1) | phosphorylation enrichment (EPHB2) | phosphorylation enrichment (FGFR1) | phosphorylation enrichment (FGFR3) | phosphorylation enrichment (Fer (mouse)) | phosphorylation enrichment (Fes) | phosphorylation enrichment (Fyn) | phosphorylation enrichment (Hck) | phosphorylation enrichment (Jak2) | phosphorylation enrichment (MERTK) | phosphorylation enrichment (c-Abl (mouse)) | phosphorylation enrichment (c-Src) | SH2 binding enrichment (Grb2 SH2) | SH2 binding enrichment (SHP2-C SH2) | SH2 binding enrichment (c-Src SH2) |
| --- | --- | --- | --- | --- | --- | --- | --- | --- | --- | --- | --- | --- | --- | --- | --- | --- |
| TGVRDYIHVVD [GALE_Y241] | 0.846 | 0.499 | 0.531 | 0.587 | 0.593 | 0.413 | 1.01 | 0.426 | 0.493 | 0.71 | 0.331 | 0.586 | 0.381 | 0.81 | 0.658 | 0.549 |
| TKDTFYKQPVF [GBA_Y451_M455V] | 0.634 | 0.409 | 0.523 | 0.406 | 0.473 | 0.308 | 0.766 | 0.386 | 0.312 | 0.695 | 0.417 | 0.764 | 0.421 | 0.905 | 0.66 | 0.417 |
| TLERHYEELQA [SPTBN2_Y834] | 1.04 | 0.648 | 0.522 | 0.472 | 0.677 | 1.7 | 1.06 | 0.541 | 0.591 | 0.947 | 0.578 | 0.836 | 0.505 | 0.586 | 0.52 | 18.6 |
| TLQSMYGCDLG [HLA-B_Y123_V127L] | 1.18 | 0.836 | 0.522 | 0.491 | 0.858 | 0.659 | 1.38 | 0.576 | 0.591 | 1.06 | 0.518 | 1.06 | 0.597 | 0.674 | 0.591 | 0.586 |
| TMKSRYMELYD [BBS2_Y644] | 0.812 | 0.535 | 0.608 | 0.489 | 0.556 | 0.426 | 0.868 | 0.475 | 0.694 | 0.808 | 0.456 | 0.624 | 0.73 | 0.809 | 1.2 | 4.93 |
| TNFSLYLRSLE [MTM1_Y71_R69S_YF] | 1.2 | 0.754 | 0.491 | 0.41 | 0.744 | 0.438 | 1.38 | 0.368 | 0.432 | 1.36 | 0.42 | 0.908 | 0.385 | 0.708 | 0.91 | 0.687 |
| TPTFPYLLPKS [PLD2_Y580_YF] | 0.623 | 0.44 | 0.464 | 0.503 | 0.406 | 0.382 | 0.63 | 0.501 | 0.423 | 0.519 | 0.51 | 0.499 | 0.451 | 1.01 | 1.01 | 0.587 |
| TQNAVYSAANF [DDX5_Y535_G533A_YF] | 0.634 | 3.15 | 4.24 | 0.519 | 0.515 | 6.31 | 0.694 | 10.3 | 12 | 0.526 | 8.98 | 7.53 | 8.46 | 0.958 | 0.704 | 0.631 |
| TQNAVYSAANY [DDX5_Y535_G533A] | 0.643 | 2.46 | 3.99 | 0.586 | 0.619 | 2.8 | 0.924 | 8.89 | 11.1 | 0.527 | 5.57 | 4.56 | 6.96 | 0.88 | 0.956 | 0.708 |
| TSIGNYYKPWF [DHCR24_Y299_N294T] | 1 | 16.3 | 15.7 | 5.29 | 4.18 | 0.438 | 0.868 | 0.59 | 1.03 | 11.5 | 10.1 | 14.6 | 0.707 | 0.844 | 2.71 | 1.27 |
| TSNQEYLYLSM [FGFR1_Y766_D768Y] | 2.64 | 2.28 | 1.83 | 12.5 | 8.18 | 0.845 | 1.31 | 2.08 | 2.67 | 3.5 | 5.28 | 0.975 | 2.88 | 0.812 | 0.553 | 0.447 |
| TTASRYLKVSD [MYOM2_Y871_N869S] | 0.489 | 0.347 | 0.293 | 0.366 | 0.467 | 0.377 | 0.636 | 0.373 | 0.311 | 0.434 | 0.313 | 0.54 | 0.362 | 0.534 | 0.54 | 0.515 |
| TTKAKYKTPTF [PLD2_Y573_YF] | 0.417 | 0.305 | 0.235 | 0.224 | 0.309 | 0.357 | 0.476 | 0.326 | 0.4 | 0.416 | 0.374 | 0.551 | 0.39 | 0.778 | 0.693 | 0.509 |
| TTPYNYSYIFK [RAB14_Y8_A4T] | 0.895 | 9.01 | 2.71 | 1.24 | 0.893 | 0.97 | 0.658 | 0.593 | 0.861 | 0.655 | 5.37 | 0.706 | 0.712 | 0.711 | 2.78 | 10.3 |
| TVSSDYLHPQF [CCPG1_Y569_F566S_YF] | 1.8 | 0.823 | 0.538 | 0.514 | 0.753 | 0.495 | 0.927 | 0.404 | 0.444 | 0.779 | 0.411 | 0.877 | 0.457 | 0.848 | 0.704 | 0.527 |
| TVVVPYEPPEV [TP53_Y220_S215T] | 1.08 | 0.548 | 0.439 | 0.528 | 0.62 | 0.512 | 1.16 | 0.475 | 0.458 | 1.35 | 0.549 | 0.89 | 0.537 | 0.626 | 0.701 | 1.08 |
